Experimental data: the supplement of paper PMC12067230
± gives the uncertainty stated by the source.

B1: N-13-K; numbered along this chain (parent)
chain: EASNCFAIRHFENKFAVETLICFNLFLNSQEKHY

Variants of: B1
Assay: amyloid nucleation score relative to WT ADan (yeast Sup35 reporter selection) (log enrichment difference); higher = more amyloid nucleation
Protocol: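 Deep mutational scan of the ADan peptide fused to the Sup35 nucleation domain (SupN) in S. cerevisiae [psi-pin-], covering all single amino-acid substitutions and stop truncations (truncations = sequence up to the stop). After 24 h Cu2+ induction, cells were selected on -ADE-URA plates for 7 d at 30 °C. The nucleation score is log enrichment (output/input, deep sequencing) minus that of WT ADan, as the error-weighted mean of 3 biological replicates (DiMSum).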

Point of comparison: EASNCFARRHFENKFAVETLICFNLFLNSQEKHY, amyloid nucleation score 0.781 ± 0.11. Against it:
- EASNCFAIRHFEKKFAVETLICFNLFLNSQEKHY — lower, -0.309 ± 0.14
- EASNCFAIRHFEEKFAVETLICFNLFLNSQEKHY — lower, -0.506 ± 0.14
- EASNCFAIRHFEFKFAVETLICFNLFLNSQEKHY — lower, -0.221 ± 0.11
- EASNCFAIRHFECKFAVETLICFNLFLNSQEKHY — lower, -0.187 ± 0.12
- EASNCFAIRHFEPKFAVETLICFNLFLNSQEKHY — lower, -0.534 ± 0.15
- EASNCFAIRHFESKFAVETLICFNLFLNSQEKHY — lower, -0.991 ± 0.09
- EASNCFAIRHFEHKFAVETLICFNLFLNSQEKHY — lower, -1.45 ± 0.23
- EASNCFAIRHFEDKFAVETLICFNLFLNSQEKHY — lower, 0.0178 ± 0.13
- EASNCFAIRHFETKFAVETLICFNLFLNSQEKHY — lower, -0.39 ± 0.11
- EASNCFAIRHFEVKFAVETLICFNLFLNSQEKHY — lower, 0.195 ± 0.09
- EASNCFAIRHFEYKFAVETLICFNLFLNSQEKHY — lower, -1.67 ± 0.15
- EASNCFAIRHFEQKFAVETLICFNLFLNSQEKHY — within error, 0.539 ± 0.16
- EASNCFAIRHFEAKFAVETLICFNLFLNSQEKHY — lower, -0.453 ± 0.12
- EASNCFAIRHFEWKFAVETLICFNLFLNSQEKHY — lower, -0.378 ± 0.12
- EASNCFAIRHFEMKFAVETLICFNLFLNSQEKHY — lower, -0.696 ± 0.13
- EASNCFAIRHFELKFAVETLICFNLFLNSQEKHY — lower, -0.652 ± 0.086
- EASNCFAIRHFEGKFAVETLICFNLFLNSQEKHY — higher, 1.19 ± 0.082
- EASNCFAIRHFERKFAVETLICFNLFLNSQEKHY — lower, -1.97 ± 0.1
- EASNCFAIRHFEIKFAVETLICFNLFLNSQEKHY — lower, -0.0116 ± 0.13
- EASNCFAIRHGENKFAVETLICFNLFLNSQEKHY — lower, 0.144 ± 0.091
- EASNCFAIRHKENKFAVETLICFNLFLNSQEKHY — lower, 0.435 ± 0.17
- EASNCFAIRHHENKFAVETLICFNLFLNSQEKHY — lower, -0.0333 ± 0.17
- EASNCFAIRHWENKFAVETLICFNLFLNSQEKHY — lower, -0.14 ± 0.13
- EASNCFAIRHDENKFAVETLICFNLFLNSQEKHY — lower, -0.0408 ± 0.15
- EASNCFAIRHLENKFAVETLICFNLFLNSQEKHY — lower, 0.0755 ± 0.086
- EASNCFAIRHNENKFAVETLICFNLFLNSQEKHY — lower, -0.169 ± 0.18
- EASNCFAIRHEENKFAVETLICFNLFLNSQEKHY — lower, 0.0736 ± 0.14
- EASNCFAIRHMENKFAVETLICFNLFLNSQEKHY — within error, 0.968 ± 0.15
- EASNCFAIRHAENKFAVETLICFNLFLNSQEKHY — lower, 0.14 ± 0.13
- EASNCFAIRHRENKFAVETLICFNLFLNSQEKHY — lower, 0.366 ± 0.095
- EASNCFAIRHSENKFAVETLICFNLFLNSQEKHY — lower, -0.135 ± 0.099
- EASNCFAIRHPENKFAVETLICFNLFLNSQEKHY — within error, 0.683 ± 0.19
- EASNCFAIRHIENKFAVETLICFNLFLNSQEKHY — lower, 0.216 ± 0.14
- EASNCFAIRHVENKFAVETLICFNLFLNSQEKHY — within error, 0.671 ± 0.087
- EASNCFAIRHCENKFAVETLICFNLFLNSQEKHY — lower, 0.247 ± 0.15
- EASNCFAIRHYENKFAVETLICFNLFLNSQEKHY — lower, 0.379 ± 0.14
- EASNCFAIRHQENKFAVETLICFNLFLNSQEKHY — within error, 0.646 ± 0.18
- EASNCFAIRHTENKFAVETLICFNLFLNSQEKHY — lower, 0.236 ± 0.13
- EASNCFAVRHFENKFAVETLICFNLFLNSQEKHY — lower, 0.0841 ± 0.1
- EASNCFAPRHFENKFAVETLICFNLFLNSQEKHY — lower, 0.188 ± 0.15
- EASNCFAWRHFENKFAVETLICFNLFLNSQEKHY — lower, 0.464 ± 0.14
- EASNCFATRHFENKFAVETLICFNLFLNSQEKHY — within error, 0.634 ± 0.14
- EASNCFAYRHFENKFAVETLICFNLFLNSQEKHY — lower, 0.183 ± 0.14
- EASNCFAQRHFENKFAVETLICFNLFLNSQEKHY — within error, 0.519 ± 0.23
- EASNCFASRHFENKFAVETLICFNLFLNSQEKHY — lower, 0.471 ± 0.09
- EASNCFAIKHFENKFAVETLICFNLFLNSQEKHY — lower, -0.189 ± 0.19
- EASNCFAIEHFENKFAVETLICFNLFLNSQEKHY — lower, -0.741 ± 0.17
- EASNCFAIVHFENKFAVETLICFNLFLNSQEKHY — lower, -0.535 ± 0.12
- EASNCFAIFHFENKFAVETLICFNLFLNSQEKHY — lower, -0.221 ± 0.19
- EASNCFAINHFENKFAVETLICFNLFLNSQEKHY — within error, 0.528 ± 0.27
- EASNCFAIGHFENKFAVETLICFNLFLNSQEKHY — within error, 0.614 ± 0.11
- EASNCFAIWHFENKFAVETLICFNLFLNSQEKHY — lower, -0.819 ± 0.14
- EASNCFAIQHFENKFAVETLICFNLFLNSQEKHY — lower, 0.474 ± 0.17
- EASNCFAIYHFENKFAVETLICFNLFLNSQEKHY — lower, 0.0138 ± 0.19
- EASNCFAISHFENKFAVETLICFNLFLNSQEKHY — lower, 0.143 ± 0.12
- EASNCFAILHFENKFAVETLICFNLFLNSQEKHY — lower, -0.614 ± 0.12
- EASNCFAIMHFENKFAVETLICFNLFLNSQEKHY — within error, 0.735 ± 0.17
- EASNCFAIIHFENKFAVETLICFNLFLNSQEKHY — lower, -0.484 ± 0.22
- EASNCFAIAHFENKFAVETLICFNLFLNSQEKHY — lower, 0.274 ± 0.14
- EASNCFAIDHFENKFAVETLICFNLFLNSQEKHY — lower, 0.286 ± 0.17
- EASNCFAITHFENKFAVETLICFNLFLNSQEKHY — lower, 0.386 ± 0.17
- EASNCFAIHHFENKFAVETLICFNLFLNSQEKHY — lower, -0.0444 ± 0.26
- EASNCFAICHFENKFAVETLICFNLFLNSQEKHY — lower, 0.0357 ± 0.14
- EASNCFAIRHFENKQAVETLICFNLFLNSQEKHY — lower, -0.502 ± 0.18
- EASNCFAIRHFENKEAVETLICFNLFLNSQEKHY — lower, -2.18 ± 0.19
- EASNCFAIRHFENKDAVETLICFNLFLNSQEKHY — lower, -2.5 ± 0.25
- EASNCFAIRHFENKCAVETLICFNLFLNSQEKHY — lower, -0.147 ± 0.14
- EASNCFAIRHFENKHAVETLICFNLFLNSQEKHY — lower, -2.51 ± 0.26
- EASNCFAIRHFENKGAVETLICFNLFLNSQEKHY — within error, 0.818 ± 0.089
- EASNCFAIRHFENKWAVETLICFNLFLNSQEKHY — lower, -1.15 ± 0.19
